Results published in patent US11986516B2, “Compositions and methods for treatment of SARS-COV-2” (priority 2021, dated 2024).

Key:
[1] = test system: EpiDerm™ cultures (EPI-200); assay: In Vitro EpiDerm Skin Irritation Test (EPI-200-SIT), MTT tissue viability; assay type: cell-based, human
[2] = test system: IL-1α; assay: EpiDerm skin irritation, IL-1α secretion (Quantikine ELISA); assay type: cell-based, human; conditions: EpiDerm cultures, media collected after 24 hours; rhACE-2 2.5-40 μg/ml
[3] = test system: human reconstructed nasal epithelium model (NAS-100-BETA by MatTek); assay: Nasal irritation, MTT tissue viability; assay type: cell-based
Procedure: (§1) The formulations were performed using an increased dosage (e.g., 40-50 μg) compared to the study in Example 3.
(§2) Cultures were maintained and treated topically and at the end of the treatment, tissue viability was determined using the MTT conversion assay as described in Example 3. The Relative Tissue Viability values were determined and used to classify the test articles as irritant or non-irritants according to the assay criteria. As a secondary output, levels of the proinflammatory mediator IL-1α were determined as described in Example 3.

[4] = test system: hCoV-19/USA-WA1/2020 (WA); assay type: cell-based, SARS-CoV-2; conditions: in µg/mL
[5] = test system: hCoV-19/South Africa/KRISP-K005325/2020 (SA); assay type: cell-based, SARS-CoV-2
[6] = Visual solubility assessment of ACE-2 protein in liquid excipients; assay type: physicochemical; conditions: for Visual observation for solubility: 1.6 μg API in 3.0 g
Procedure: The solubility of compounds in liquid excipients was determined using visual solubility protocol. In this method, about 3.0 g of excipients was accurately weighed in individually labelled 20 mL scintillation vials (USP Type-I). To these vials, accurately measured 1 (1.67 μg) aliquots of protein was added and tightly closed. […] The vials were kept at ambient temperature without agitation for 72 hours and visually inspected at 0, 24, and 72 hours.

[7] = test system: IL-1α; assay: Nasal irritation, IL-1α levels; assay type: cell-based, human
Procedure: as §1, §2

[8] = test system: reconstructed human skin model (Epiderm, EPI-200-X); assay: Skin permeation of rhACE-2 (ACE-2 ELISA of receiving medium); assay type: in vitro ADME; conditions: for skin permeation value (rhACE-2 in receiving medium): 50 μg/ml rhACE-2 in formulation
Procedure: In order to determine the skin permeation profile, a reconstructed human skin model (Epiderm, EPI-200-X manufactured by MatTek Corporation) was used. This model includes normal, human-derived epidermal keratinocytes (NHEK) which have been cultured to form a multilayered, highly differentiated model of the human epidermis. The NHEK cells are cultured on specially-prepared cell culture inserts using serum free medium and attain levels of differentiation. The EpiDerm Skin Model closely parallels human skin, thus providing a useful in vitro means to assess dermal irritancy and toxicology.
After an acclimation period, the skin cultures were treated in triplicates PBS (negative control/baseline), vehicle formulation (“Placebo”), and formulation containing 50 μg/ml ACE-2. At the end of each time point culture medium was completely removed and replaced with fresh medium. The amount of permeated ACE-2 over time was determined by ACE-2 ELISA. Levels of ACE-2 in the receiving medium were determined at the following timepoints: 0 minutes, 5 minutes, 30 minutes, 60 minutes, 180 minutes, 540 minutes, 1260 minutes, and 1440 minutes.

[9] = test system: human nasal epithelial cultures (EpiAirway, NAS-100-beta); assay: Nasal permeation of rhACE-2 (ELISA of receiving medium); assay type: in vitro ADME; conditions: for nasal permeation value (rhACE-2 in receiving medium): 50 μg/ml rhACE-2 in formulation
Source text: In order to determine the nasal permeation profile, human nasal epithelial cultures (EpiAirway, NAS-100-beta manufactured by MatTek Corporation) were used.
At the end of each time point, culture medium was completely removed and replaced with fresh medium.

## CCCCCCCCCCCCOS(=O)(=O)[O-].[Na+] [5% SDS]
[1]
  mean viability of positive control tissues expressed as percentage of the negative control tissues: 4%
[2]
  secretion of IL-1α: significant increase in IL-1α secretion
[3]; nasal epithelium model
  mean viability of positive control tissues expressed as percentage of the negative control tissues: 2%

## ACE2
[4]
  EC50: 9.206
[5]
  EC50: 1.18 mg/L

## rhACE-2
[6]; in 1X PBS, 24 hr
  Visual observation for solubility: Clear solution
[6]; in 1X PBS, 72 hr
  Visual observation for solubility: Clear solution
[6]; in 1X PBS, Initial Observation
  Visual observation for solubility: Clear solution
[6]; in Glycerin, 24 hr
  Visual observation for solubility: Clear solution
[6]; in Glycerin, 72 hr
  Visual observation for solubility: Clear solution
[6]; in Glycerin, Initial Observation
  Visual observation for solubility: Clear solution
[6]; in Hexylene Glycol, 24 hr
  Visual observation for solubility: Clear solution
[6]; in Hexylene Glycol, 72 hr
  Visual observation for solubility: Clear solution
[6]; in Hexylene Glycol, Initial Observation
  Visual observation for solubility: Clear solution
[6]; in Polyethylene Glycol 400, 24 hr
  Visual observation for solubility: Clear solution
[6]; in Polyethylene Glycol 400, 72 hr
  Visual observation for solubility: Clear solution
[6]; in Polyethylene Glycol 400, Initial Observation
  Visual observation for solubility: Clear solution
[6]; in Polysorbate 20, 24 hr
  Visual observation for solubility: Clear yellow
[6]; in Polysorbate 20, 72 hr
  Visual observation for solubility: Clear yellow
[6]; in Polysorbate 20, Initial Observation
  Visual observation for solubility: Clear yellow
[6]; in Propylene Glycol, 24 hr
  Visual observation for solubility: Clear solution
[6]; in Propylene Glycol, 72 hr
  Visual observation for solubility: Clear solution
[6]; in Propylene Glycol, Initial Observation
  Visual observation for solubility: Clear solution
[6]; in Purified Water, USP, 24 hr
  Visual observation for solubility: Clear solution
[6]; in Purified Water, USP, 72 hr
  Visual observation for solubility: Clear solution
[6]; in Purified Water, USP, Initial Observation
  Visual observation for solubility: Clear solution
[6]; propylene glycol, hexylene glycol, glycerin, polyethylene glycol 400, polysorbate 20, purified water, PBS
  solubility in all the excipients tested: readily soluble
[3]; all tested concentrations, 3.06-50 μg/ml
  classification as nasal irritant: nasal non-irritants
[7]; rhACE-2 3.06 μg/ml
  average IL-1α levels: 0 ng/mL
[7]; rhACE-2 6.125 μg/ml
  average IL-1α levels: 0 ng/mL
[8]; 5 minutes post application
  skin permeation value (rhACE-2 in receiving medium): 0.402 ng/ml
[8]; 30 minutes post application
  skin permeation value (rhACE-2 in receiving medium): 0.578 ng/ml
[8]; 60 minutes post application
  skin permeation value (rhACE-2 in receiving medium): 1.28 ng/ml
[8]; 180 minutes post application
  skin permeation value (rhACE-2 in receiving medium): 0.0196 ng/ml
[8]; 540 minutes post application
  skin permeation value (rhACE-2 in receiving medium): 0 ng/ml
[8]; 1260 minutes post application
  skin permeation value (rhACE-2 in receiving medium): 0.98 ng/ml
[8]; 1440 minutes post application
  skin permeation value (rhACE-2 in receiving medium): 0.029 ng/ml
[8]; at 50 μg/ml
  permeation through reconstructed human skin tissue: minimal to negligible permeation
[9]; 5 minutes post application
  nasal permeation value (rhACE-2 in receiving medium): 0.035 ng/ml
[9]; 180 minutes post application
  nasal permeation value (rhACE-2 in receiving medium): 0.06 ng/ml
[9]; 540 minutes post application
  nasal permeation value (rhACE-2 in receiving medium): 0.413 ng/ml
[9]; 1260 minutes post application
  nasal permeation value (rhACE-2 in receiving medium): 1.03 ng/ml
[9]; 1440 minutes post application
  nasal permeation value (rhACE-2 in receiving medium): 0.249 ng/ml
[9]; at 50 μg/ml
  permeation through reconstructed human nasal tissue: minimal to negligible permeation
